The values that follow come from publication PMC10152144 (2026).

In this assay the target is Arp2/3 complex (Bos taurus, UniProt A7MB62). Put plainly: single-filament microfluidics TIRF detachment assay.

As usually defined, the Kd is the free concentration of one partner at which half of the binding sites on the other are occupied at equilibrium, for simple one-to-one binding.

B1: GMF (protein)
chain: SDSLVVCEVDPELKETLRKFRFRKETNNAAIIMKVDKDRQMVVLEDELQNISPEELKLELPERQPRFVVYSYKYVHDDGRVSYPLCFIFSSPVGCKPEQQMMYAGSKNRLVQTAELTKVFEIRTTDDLTETWLKEKLAFFR
For B1, the dissociation constant (Kd) was 70 nM. This counts as double-digit nanomolar.

B2: VCA motif VCA (protein)
chain: PSDGDHQVPTTAGNKAALLDQIREGAQLKKVEQNSRPVSCSGRDALLDQIRQGIQLKSVADGQESTPPTPAPTSGIVGALMEVMQKRSKAIHSSDEDEDEDDEEDFEDDDEWED
For the molecule B2, the equilibrium dissociation constant (Kd) came out at 560 nM.
